From the Human Domainome abundance scans (Beltran et al. 2025)
± gives the uncertainty stated by the source.

B1: Neutrophil cytosol factor 2, residues 456 to 514; numbered along this chain, P19878 (parent)
chain: LKKGSQVEALFSYEATQPEDLEFQEGDIILVLSKVNEEWLEGECKGKVGIFPKVFVEDC

Variants of: B1
Assay: abundance fitness (aPCA) (normalised: wild type 0, dead -1); higher = more abundant; growth selection in yeast, the domain comes from the species named
Settings: Homo sapiens

Row | Variant | abundance fitness
1 | LKKGSQVEALFSYEATQPEDLEFQEGDIILVLSKVNEEWLEMECKGKVGIFPKVFVEDC [G42M] | -0.954 ± 0.31
2 | LKKGSQVEALFSYEATQPEDLEFQEGDIILVLSKVNEEWLEIECKGKVGIFPKVFVEDC [G42I] | -0.473 ± 0.15
3 | LKKGSQVEALFSYEATQPEDLEFQEGDIILVLSKVNEEWLEFECKGKVGIFPKVFVEDC [G42F] | -0.509 ± 0.12
4 | LKKGSQVEALFSYEATQPEDLEFQEGDIILVLSKVNEEWLEPECKGKVGIFPKVFVEDC [G42P] | -0.375 ± 0.18
5 | LKKGSQVEALFSYEATQPEDLEFQEGDIILVLSKVNEEWLEYECKGKVGIFPKVFVEDC [G42Y] | -0.466 ± 0.16
6 | LKKGSQVEALFSYEATQPEDLEFQEGDIILVLSKVNEEWLEDECKGKVGIFPKVFVEDC [G42D] | -0.803 ± 0.17
7 | LKKGSQVEALFSYEATQPEDLEFQEGDIILVLSKVNEEWLERECKGKVGIFPKVFVEDC [G42R] | -0.952 ± 0.19
8 | LKKGSQVEALFSYEATQPEDLEFQEGDIILVLSKVNEEWLEKECKGKVGIFPKVFVEDC [G42K] | -0.768 ± 0.35
9 | LKKGSQVEALFSYEATQPEDLEFQEGDIILVLSKVNEEWLEQECKGKVGIFPKVFVEDC [G42Q] | -0.637 ± 0.28
10 | LKKGSQVEALFSYEATQPEDLEFQEGDIILVLSKVNEEWLETECKGKVGIFPKVFVEDC [G42T] | -0.876 ± 0.24
11 | LKKGSQVEALFSYEATQPEDLEFQEGDIILVLSKVNEEWLEAECKGKVGIFPKVFVEDC [G42A] | -0.146 ± 0.13
12 | LKKGSQVEALFSYEATQPEDLEFQEGDIILVLSKVNEEWLEEECKGKVGIFPKVFVEDC [G42E] | -0.237 ± 0.21
13 | LKKGSQVEALFSYEATQPEDLEFQEGDIILVLSKVNEEWLENECKGKVGIFPKVFVEDC [G42N] | -0.484 ± 0.15
14 | LKKGSQVEALFSYEATQPEDLEFQEGDIILVLSKVNEEWLEWECKGKVGIFPKVFVEDC [G42W] | -0.322 ± 0.17
15 | LKKGSQVEALFSYEATQPEDLEFQEGDIILVLSKVNEEWLECECKGKVGIFPKVFVEDC [G42C] | -0.782 ± 0.15
16 | LKKGSQVEALFSYEATQPEDLEFQEGDIILVLSKVNEEWLEVECKGKVGIFPKVFVEDC [G42V] | -0.748 ± 0.16
17 | LKKGSQVEALFSYEATQPEDLEFQEGDIILVLSKVNEEWLELECKGKVGIFPKVFVEDC [G42L] | -0.569 ± 0.14
18 | LKKGSQVEALFSYEATQPEDLEFQEGDIILVLSKVNEEWLEGELKGKVGIFPKVFVEDC [C44L] | -0.35 ± 0.1
19 | LKKGSQVEALFSYEATQPEDLEFQEGDIILVLSKVNEEWLEGEPKGKVGIFPKVFVEDC [C44P] | -0.583 ± 0.2
20 | LKKGSQVEALFSYEATQPEDLEFQEGDIILVLSKVNEEWLEGEWKGKVGIFPKVFVEDC [C44W] | -0.182 ± 0.17
21 | LKKGSQVEALFSYEATQPEDLEFQEGDIILVLSKVNEEWLEGEHKGKVGIFPKVFVEDC [C44H] | -0.806 ± 0.19
22 | LKKGSQVEALFSYEATQPEDLEFQEGDIILVLSKVNEEWLEGENKGKVGIFPKVFVEDC [C44N] | -0.924 ± 0.2
23 | LKKGSQVEALFSYEATQPEDLEFQEGDIILVLSKVNEEWLEGETKGKVGIFPKVFVEDC [C44T] | -0.467 ± 0.17

Row | Variant | abundance fitness
24 | LKKGSQVEALFSYEATQPEDLEFQEGDIILVLSKVNEEWLEGEVKGKVGIFPKVFVEDC [C44V] | -0.455 ± 0.094
25 | LKKGSQVEALFSYEATQPEDLEFQEGDIILVLSKVNEEWLEGEDKGKVGIFPKVFVEDC [C44D] | -0.557 ± 0.15
26 | LKKGSQVEALFSYEATQPEDLEFQEGDIILVLSKVNEEWLEGEYKGKVGIFPKVFVEDC [C44Y] | -0.478 ± 0.11
27 | LKKGSQVEALFSYEATQPEDLEFQEGDIILVLSKVNEEWLEGEEKGKVGIFPKVFVEDC [C44E] | -0.865 ± 0.41
28 | LKKGSQVEALFSYEATQPEDLEFQEGDIILVLSKVNEEWLEGEFKGKVGIFPKVFVEDC [C44F] | -0.741 ± 0.13
29 | LKKGSQVEALFSYEATQPEDLEFQEGDIILVLSKVNEEWLEGEKKGKVGIFPKVFVEDC [C44K] | -0.574 ± 0.4
30 | LKKGSQVEALFSYEATQPEDLEFQEGDIILVLSKVNEEWLEGERKGKVGIFPKVFVEDC [C44R] | -0.336 ± 0.12
31 | LKKGSQVEALFSYEATQPEDLEFQEGDIILVLSKVNEEWLEGEGKGKVGIFPKVFVEDC [C44G] | -0.383 ± 0.094
32 | LKKGSQVEALFSYEATQPEDLEFQEGDIILVLSKVNEEWLEGEAKGKVGIFPKVFVEDC [C44A] | -0.241 ± 0.13
33 | LKKGSQVEALFSYEATQPEDLEFQEGDIILVLSKVNEEWLEGEIKGKVGIFPKVFVEDC [C44I] | -0.705 ± 0.14
34 | LKKGSQVEALFSYEATQPEDLEFQEGDIILVLSKVNEEWLEGEMKGKVGIFPKVFVEDC [C44M] | 0.102 ± 0.21
35 | LKKGSQVEALFSYEATQPEDLEFQEGDIILVLSKVNEEWIEGECKGKVGIFPKVFVEDC [L40I] | -0.183 ± 0.12
36 | LKKGSQVEALFSYEATQPEDLEFQEGDIILVLSKVNEEWTEGECKGKVGIFPKVFVEDC [L40T] | -0.749 ± 0.21
37 | LKKGSQVEALFSYEATQPEDLEFQEGDIILVLSKVNEEWEEGECKGKVGIFPKVFVEDC [L40E] | -0.742 ± 0.47
38 | LKKGSQVEALFSYEATQPEDLEFQEGDIILVLSKVNEEWYEGECKGKVGIFPKVFVEDC [L40Y] | 0.528 ± 0.077
39 | LKKGSQVEALFSYEATQPEDLEFQEGDIILVLSKVNEEWQEGECKGKVGIFPKVFVEDC [L40Q] | -0.58 ± 0.4
40 | LKKGSQVEALFSYEATQPEDLEFQEGDIILVLSKVNEEWKEGECKGKVGIFPKVFVEDC [L40K] | -0.918 ± 0.33
41 | LKKGSQVEALFSYEATQPEDLEFQEGDIILVLSKVNEEWNEGECKGKVGIFPKVFVEDC [L40N] | -0.945 ± 0.21
42 | LKKGSQVEALFSYEATQPEDLEFQEGDIILVLSKVNEEWFEGECKGKVGIFPKVFVEDC [L40F] | -0.548 ± 0.14
43 | LKKGSQVEALFSYEATQPEDLEFQEGDIILVLSKVNEEWHEGECKGKVGIFPKVFVEDC [L40H] | -0.764 ± 0.25
44 | LKKGSQVEALFSYEATQPEDLEFQEGDIILVLSKVNEEWWEGECKGKVGIFPKVFVEDC [L40W] | -0.277 ± 0.2
45 | LKKGSQVEALFSYEATQPEDLEFQEGDIILVLSKVNEEWREGECKGKVGIFPKVFVEDC [L40R] | -0.217 ± 0.12
